Reference: the supplement of paper PMC9112550, “Optimization of the antimicrobial peptide Bac7 by deep mutational scanning” (BMC Biology, 2022)

Test system: Escherichia coli TOP10
Assay: shrunken log2 fold change of peptide-encoding DNA abundance (4.5 h post-induction vs induction); higher = less antimicrobial activity (less host growth inhibition)
Conditions: time post-induction: 4.5 h; library: site-saturation at positions 5, 18, 19, 20
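Also: peptides expressed intracellularly from a pBAD plasmid library in pooled LB shake-flask culture, induced with 0.3% L-arabinose, DNA abundance read by NGS, three biological replicates, DESeq2 with apeglm shrinkage.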

## RRIRWRPPRLPRPRPRPLGPPRP
  shrunken log2 fold change: 0.478

## RRIRPRPPRLPRPRPRPQEYPRP
  shrunken log2 fold change: -0.151

## RRIRIRPPRLPRPRPRPYLYPRP
  shrunken log2 fold change: -0.544

## RRIRNRPPRLPRPRPRPRHSPRP
  shrunken log2 fold change: -0.424

## RRIRNRPPRLPRPRPRPGLAPRP
  shrunken log2 fold change: 0.415

## RRIRERPPRLPRPRPRPDYSPRP
  shrunken log2 fold change: -1.47

## RRIRRRPPRLPRPRPRPQPMPRP
  shrunken log2 fold change: 0.606

## RRIRPRPPRLPRPRPRPGLTPRP
  shrunken log2 fold change: 0.0985

## RRIRLRPPRLPRPRPRPVHRPRP
  shrunken log2 fold change: 0.119

## RRIRCRPPRLPRPRPRPMRDPRP
  shrunken log2 fold change: 0.281

## RRIRGRPPRLPRPRPRPQQCPRP
  shrunken log2 fold change: 0.13

## RRIRQRPPRLPRPRPRPPDPPRP
  shrunken log2 fold change: 0.151

## RRIRPRPPRLPRPRPRPECLPRP
  shrunken log2 fold change: 0.0299

## RRIRDRPPRLPRPRPRPQMCPRP
  shrunken log2 fold change: -0.183

## RRIRERPPRLPRPRPRPFYIPRP
  shrunken log2 fold change: -0.5

## RRIRVRPPRLPRPRPRPMVSPRP
  shrunken log2 fold change: -0.188

## RRIRIRPPRLPRPRPRPEFDPRP
  shrunken log2 fold change: 0.0326

## RRIRFRPPRLPRPRPRPNFNPRP
  shrunken log2 fold change: -0.554

## RRIRCRPPRLPRPRPRPCSNPRP
  shrunken log2 fold change: -0.274

## RRIRCRPPRLPRPRPRPFDFPRP
  shrunken log2 fold change: -0.342

## RRIRMRPPRLPRPRPRPWQQPRP
  shrunken log2 fold change: -0.0113

## RRIRPRPPRLPRPRPRPVVQPRP
  shrunken log2 fold change: 0.28

## RRIRHRPPRLPRPRPRPWCSPRP
  shrunken log2 fold change: -0.348

## RRIRTRPPRLPRPRPRPMHWPRP
  shrunken log2 fold change: 0.209

## RRIRGRPPRLPRPRPRPCDGPRP
  shrunken log2 fold change: 0.123

## RRIRIRPPRLPRPRPRPYKQPRP
  shrunken log2 fold change: -0.101

## RRIRKRPPRLPRPRPRPCTAPRP
  shrunken log2 fold change: 0.383

## RRIRMRPPRLPRPRPRPNGPPRP
  shrunken log2 fold change: 0.114

## RRIRSRPPRLPRPRPRPDWQPRP
  shrunken log2 fold change: -0.162

## RRIRMRPPRLPRPRPRPSLKPRP
  shrunken log2 fold change: 0.359

## RRIRNRPPRLPRPRPRPFDCPRP
  shrunken log2 fold change: 0.0101

## RRIRARPPRLPRPRPRPYYYPRP
  shrunken log2 fold change: -0.602

## RRIRFRPPRLPRPRPRPNFMPRP
  shrunken log2 fold change: -0.0155

## RRIRYRPPRLPRPRPRPRRLPRP
  shrunken log2 fold change: -0.385

## RRIRTRPPRLPRPRPRPWYLPRP
  shrunken log2 fold change: -0.0692

## RRIRQRPPRLPRPRPRPEAYPRP
  shrunken log2 fold change: 0.0335

## RRIRSRPPRLPRPRPRPCRHPRP
  shrunken log2 fold change: 0.063

## RRIRKRPPRLPRPRPRPRSEPRP
  shrunken log2 fold change: -0.00081

## RRIRHRPPRLPRPRPRPMIRPRP
  shrunken log2 fold change: -0.173

## RRIRPRPPRLPRPRPRPLFYPRP
  shrunken log2 fold change: -0.383

## RRIRPRPPRLPRPRPRPPHLPRP
  shrunken log2 fold change: 0.024

## RRIRVRPPRLPRPRPRPMFMPRP
  shrunken log2 fold change: -0.562

## RRIRRRPPRLPRPRPRPFYTPRP
  shrunken log2 fold change: -0.327

## RRIRTRPPRLPRPRPRPCKPPRP
  shrunken log2 fold change: -0.996

## RRIRHRPPRLPRPRPRPILNPRP
  shrunken log2 fold change: -0.186

## RRIRRRPPRLPRPRPRPQHFPRP
  shrunken log2 fold change: 0.256

## RRIRDRPPRLPRPRPRPSYKPRP
  shrunken log2 fold change: -0.208

## RRIRQRPPRLPRPRPRPWSWPRP
  shrunken log2 fold change: -0.0208

## RRIRGRPPRLPRPRPRPMLHPRP
  shrunken log2 fold change: 0.526

## RRIRLRPPRLPRPRPRPWGIPRP
  shrunken log2 fold change: -0.198

## RRIRLRPPRLPRPRPRPGGCPRP
  shrunken log2 fold change: 0.177

## RRIRQRPPRLPRPRPRPIFNPRP
  shrunken log2 fold change: -0.365

## RRIRYRPPRLPRPRPRPQKKPRP
  shrunken log2 fold change: 0.0261

## RRIRWRPPRLPRPRPRPFDPPRP
  shrunken log2 fold change: 0.0827

## RRIRSRPPRLPRPRPRPHTVPRP
  shrunken log2 fold change: -0.218

## RRIRLRPPRLPRPRPRPIMVPRP
  shrunken log2 fold change: -0.117

## RRIRWRPPRLPRPRPRPPACPRP
  shrunken log2 fold change: 0.531

## RRIRWRPPRLPRPRPRPIYPPRP
  shrunken log2 fold change: -0.0275

## RRIRSRPPRLPRPRPRPVCHPRP
  shrunken log2 fold change: -0.388

## RRIRYRPPRLPRPRPRPDYTPRP
  shrunken log2 fold change: -0.174

## RRIRIRPPRLPRPRPRPLAAPRP
  shrunken log2 fold change: 0.255

## RRIRSRPPRLPRPRPRPPLWPRP
  shrunken log2 fold change: 0.704

## RRIRTRPPRLPRPRPRPPFFPRP
  shrunken log2 fold change: 0.253

## RRIRIRPPRLPRPRPRPYYKPRP
  shrunken log2 fold change: -1.01

## RRIRLRPPRLPRPRPRPRSPPRP
  shrunken log2 fold change: 0.803

## RRIRYRPPRLPRPRPRPGFSPRP
  shrunken log2 fold change: -0.0944

## RRIRCRPPRLPRPRPRPMRYPRP
  shrunken log2 fold change: 0.0209

## RRIRKRPPRLPRPRPRPSNRPRP
  shrunken log2 fold change: -0.00152

## RRIRERPPRLPRPRPRPATSPRP
  shrunken log2 fold change: 0.0131

## RRIRWRPPRLPRPRPRPHKSPRP
  shrunken log2 fold change: 0.0767

## RRIRTRPPRLPRPRPRPWHRPRP
  shrunken log2 fold change: -0.126

## RRIRLRPPRLPRPRPRPQNQPRP
  shrunken log2 fold change: -0.159

## RRIRWRPPRLPRPRPRPDHNPRP
  shrunken log2 fold change: -0.302

## RRIRSRPPRLPRPRPRPNWEPRP
  shrunken log2 fold change: 0.015

## RRIRARPPRLPRPRPRPWYRPRP
  shrunken log2 fold change: -0.099

## RRIRQRPPRLPRPRPRPFAIPRP
  shrunken log2 fold change: 0.00479

## RRIRRRPPRLPRPRPRPDRMPRP
  shrunken log2 fold change: -0.00208

## RRIRRRPPRLPRPRPRPNLEPRP
  shrunken log2 fold change: 0.442

## RRIRTRPPRLPRPRPRPMFIPRP
  shrunken log2 fold change: -0.305

## RRIRERPPRLPRPRPRPCMSPRP
  shrunken log2 fold change: -0.00711

## RRIRSRPPRLPRPRPRPPAIPRP
  shrunken log2 fold change: 0.413

## RRIRYRPPRLPRPRPRPVFFPRP
  shrunken log2 fold change: -0.367

## RRIRKRPPRLPRPRPRPTDAPRP
  shrunken log2 fold change: 0.05

## RRIRPRPPRLPRPRPRPHGSPRP
  shrunken log2 fold change: 0.063

## RRIRRRPPRLPRPRPRPDMEPRP
  shrunken log2 fold change: -0.0393

## RRIRQRPPRLPRPRPRPRYMPRP
  shrunken log2 fold change: -0.0938

## RRIRCRPPRLPRPRPRPHKCPRP
  shrunken log2 fold change: -0.721

## RRIRMRPPRLPRPRPRPSYTPRP
  shrunken log2 fold change: -0.38

## RRIRGRPPRLPRPRPRPVCLPRP
  shrunken log2 fold change: 1.1

## RRIRHRPPRLPRPRPRPYQAPRP
  shrunken log2 fold change: -0.00987

## RRIRARPPRLPRPRPRPSAPPRP
  shrunken log2 fold change: 0.397

## RRIRVRPPRLPRPRPRPTAKPRP
  shrunken log2 fold change: 0.0848

## RRIRSRPPRLPRPRPRPTIQPRP
  shrunken log2 fold change: -0.305

## RRIRTRPPRLPRPRPRPEKRPRP
  shrunken log2 fold change: -0.0149

## RRIRKRPPRLPRPRPRPRVHPRP
  shrunken log2 fold change: 0.252

## RRIRRRPPRLPRPRPRPMVEPRP
  shrunken log2 fold change: -0.257

## RRIRDRPPRLPRPRPRPALIPRP
  shrunken log2 fold change: 0.145

## RRIRARPPRLPRPRPRPLHQPRP
  shrunken log2 fold change: 0.147

## RRIRPRPPRLPRPRPRPYMEPRP
  shrunken log2 fold change: 1.54

## RRIRARPPRLPRPRPRPMRMPRP
  shrunken log2 fold change: 0.784

## RRIRSRPPRLPRPRPRPKIYPRP
  shrunken log2 fold change: -0.265

## RRIRSRPPRLPRPRPRPAYNPRP
  shrunken log2 fold change: -0.00937

## RRIRHRPPRLPRPRPRPNCVPRP
  shrunken log2 fold change: -0.0146

## RRIRKRPPRLPRPRPRPGDTPRP
  shrunken log2 fold change: 0.0879

## RRIRQRPPRLPRPRPRPKLHPRP
  shrunken log2 fold change: -0.201

## RRIRGRPPRLPRPRPRPGRIPRP
  shrunken log2 fold change: 0.153

## RRIRERPPRLPRPRPRPICHPRP
  shrunken log2 fold change: -0.187

## RRIRMRPPRLPRPRPRPIQYPRP
  shrunken log2 fold change: 0.0408

## RRIRNRPPRLPRPRPRPHWTPRP
  shrunken log2 fold change: 0.0333

## RRIRLRPPRLPRPRPRPSKEPRP
  shrunken log2 fold change: -0.4

## RRIRKRPPRLPRPRPRPPIRPRP
  shrunken log2 fold change: -0.104

## RRIRKRPPRLPRPRPRPFGEPRP
  shrunken log2 fold change: 0.365

## RRIRRRPPRLPRPRPRPFVNPRP
  shrunken log2 fold change: -0.049

## RRIRTRPPRLPRPRPRPQSTPRP
  shrunken log2 fold change: -0.236

## RRIRSRPPRLPRPRPRPHMRPRP
  shrunken log2 fold change: -0.0431

## RRIRSRPPRLPRPRPRPALPPRP
  shrunken log2 fold change: 0.26

## RRIRRRPPRLPRPRPRPNEDPRP
  shrunken log2 fold change: 0.352

## RRIRHRPPRLPRPRPRPYHKPRP
  shrunken log2 fold change: -0.412

## RRIRIRPPRLPRPRPRPKTCPRP
  shrunken log2 fold change: 0.179

## RRIRQRPPRLPRPRPRPDWDPRP
  shrunken log2 fold change: -0.00122

## RRIRWRPPRLPRPRPRPNEMPRP
  shrunken log2 fold change: -0.078

## RRIRFRPPRLPRPRPRPLHGPRP
  shrunken log2 fold change: -0.216

## RRIRKRPPRLPRPRPRPHNRPRP
  shrunken log2 fold change: -0.137

## RRIRSRPPRLPRPRPRPFLLPRP
  shrunken log2 fold change: -0.411

## RRIRPRPPRLPRPRPRPCTLPRP
  shrunken log2 fold change: -0.029

## RRIRVRPPRLPRPRPRPFYHPRP
  shrunken log2 fold change: -0.502

## RRIRRRPPRLPRPRPRPDILPRP
  shrunken log2 fold change: 0.0906

## RRIRRRPPRLPRPRPRPSLGPRP
  shrunken log2 fold change: 0.261

## RRIRGRPPRLPRPRPRPLDLPRP
  shrunken log2 fold change: 0.717

## RRIRYRPPRLPRPRPRPESQPRP
  shrunken log2 fold change: -0.0411

## RRIRFRPPRLPRPRPRPELPPRP
  shrunken log2 fold change: -0.0615

## RRIRVRPPRLPRPRPRPMLTPRP
  shrunken log2 fold change: -0.066

## RRIRQRPPRLPRPRPRPPAIPRP
  shrunken log2 fold change: -0.0632

## RRIRERPPRLPRPRPRPLHVPRP
  shrunken log2 fold change: -0.268

## RRIRNRPPRLPRPRPRPPRNPRP
  shrunken log2 fold change: 0.196

## RRIRERPPRLPRPRPRPVSWPRP
  shrunken log2 fold change: 0.368

## RRIRIRPPRLPRPRPRPRHRPRP
  shrunken log2 fold change: -0.0972

## RRIRIRPPRLPRPRPRPYHIPRP
  shrunken log2 fold change: -0.0511

## RRIRVRPPRLPRPRPRPVTPPRP
  shrunken log2 fold change: 0.214

## RRIRTRPPRLPRPRPRPMRYPRP
  shrunken log2 fold change: -0.0953

## RRIRKRPPRLPRPRPRPSEYPRP
  shrunken log2 fold change: -0.026

## RRIRDRPPRLPRPRPRPAHQPRP
  shrunken log2 fold change: 0.516

## RRIRYRPPRLPRPRPRPLAEPRP
  shrunken log2 fold change: -0.149

## RRIRWRPPRLPRPRPRPYMPPRP
  shrunken log2 fold change: -0.695

## RRIRLRPPRLPRPRPRPVGDPRP
  shrunken log2 fold change: 0.416

## RRIRTRPPRLPRPRPRPSTIPRP
  shrunken log2 fold change: -0.386

## RRIRRRPPRLPRPRPRPQWWPRP
  shrunken log2 fold change: 0.297

## RRIRCRPPRLPRPRPRPEWVPRP
  shrunken log2 fold change: 0.293

## RRIRKRPPRLPRPRPRPKCYPRP
  shrunken log2 fold change: -0.0561

## RRIRIRPPRLPRPRPRPLRVPRP
  shrunken log2 fold change: 0.291
